Data reported in patent US20180094059A1 (published 2018).
Substitutions are numbered along the chain they refer to.

B1: scTRAIL3-FAVGGAA (ligand)
chain: LDDYKDDDDKEFGGAAAHITGTRGRSNTLSSPNSKNEKALGRKINSWESSRSGHSFLSNLHLRNGELVIHEKGFYYIYSQTYFRFQEEIKENTKNDKQMVQYIYKYTSYPDPILLMKSARNSCWSKDAEYGLYSIYQGGIFELKENDRIFVSVTNEHLIDMDHEASFFGAFAVGGAAAHITGTRGRSNTLSSPNSKNEKALGRKINSWESSRSGHSFLSNLHLRNGELVIHEKGFYYIYSQTYFRFQEEIKENTKNDKQMVQYIYKYTSYPDPILLMKSARNSCWSKDAEYGLYSIYQGGIFELKENDRIFVSVTNEHLIDMDHEASFFGAFAVGGAAAHITGTRGRSNTLSSPNSKNEKALGRKINSWESSRSGHSFLSNLHLRNGELVIHEKGFYYIYSQTYFRFQEEIKENTKNDKQMVQYIYKYTSYPDPILLMKSARNSCWSKDAEYGLYSIYQGGIFELKENDRIFVSVTNEHLIDMDHEASFFGAFAVG
B2: scTRAIL3-FLVGGVA (ligand)
chain: B1 chain with A15V, A172L, A176V, A333L, A337V, A494L
B3: scTRAIL3-FLVGGAA (ligand)
chain: B1 chain with A172L, A333L, A494L
B4: scTRAIL3-FAVGGIA (protein)
chain: MDWTWRVFCLLAVAPGAHSLDDYKDDDDKEFGGAAAHITGTRGRSNTLSSPNSKNEKALGRKINSWESSRSGHSFLSNLHLRNGELVIHEKGFYYIYSQTYFRFQEEIKENTKNDKQMVQYIYKYTSYPDPILLMKSARNSCWSKDAEYGLYSIYQGGIFELKENDRIFVSVTNEHLIDMDHEASFFGAFLVGGAAAHITGTRGRSNTLSSPNSKNEKALGRKINSWESSRSGHSFLSNLHLRNGELVIHEKGFYYIYSQTYFRFQEEIKENTKNDKQMVQYIYKYTSYPDPILLMKSARNSCWSKDAEYGLYSIYQGGIFELKENDRIFVSVTNEHLIDMDHEASFFGAFLVGGAAAHITGTRGRSNTLSSPNSKNEKALGRKINSWESSRSGHSFLSNLHLRNGELVIHEKGFYYIYSQTYFRFQEEIKENTKNDKQMVQYIYKYTSYPDPILLMKSARNSCWSKDAEYGLYSIYQGGIFELKENDRIFVSVTNEHLIDMDHEASFFGAFLVG
B5: scTRAIL3-FLVSGIA (protein)
chain: B4 chain with A34I, L191A, A195I, L352A, A356I, L513A
B6: scTRAIL3-FIVSGIA (protein)
chain: B4 chain with A34I, L191I, A195I, L352I, A356I, L513I
B7: scTRAIL3-FAVSGAA (protein)
chain: B4 chain with L191A, G193S, L352A, G354S, L513A, G515S
B8: scTRAIL3-FIVGGIA (protein)
chain: B4 chain with L191A, L352A, L513A
B9: Db-Glyco-scTRAIL3-FAVSGAA (other)
chain: LEASDYKDDDDKGAEVQLVESGGGLVQPGGSLRLSCAASGFSLTNYGVHWVRQAPGKGLEWLGVIWSGGNTDYNTPFTSRFTISRDNSKNTLYLQMNSLRAEDTAVYYCARALTYYDYEFAYWGQGTTVTVSSGGGGSDIQLTQSPSFLSASVGDRVTITCRASQSIGTNIHWYQQKPGKAPKLLIKYASESISGVPSRFSGSGSGTEFTLTISSLQPEDFATYYCQQNNNWPTTFGAGTKLEIKRAAAGNGTSNGTSEFGGAAAHITGTRGRSNTLSSPNSKNEKALGRKINSWESSRSGHSFLSNLHLRNGELVIHEKGFYYIYSQTYFRFQEEIKENTKNDKQMVQYIYKYTSYPDPILLMKSARNSCWSKDAEYGLYSIYQGGIFELKENDRIFVSVTNEHLIDMDHEASFFGAFAVSGAAAHITGTRGRSNTLSSPNSKNEKALGRKINSWESSRSGHSFLSNLHLRNGELVIHEKGFYYIYSQTYFRFQEEIKENTKNDKQMVQYIYKYTSYPDPILLMKSARNSCWSKDAEYGLYSIYQGGIFELKENDRIFVSVTNEHLIDMDHEASFFGAFAVSGAAAHITGTRGRSNTLSSPNSKNEKALGRKINSWESSRSGHSFLSNLHLRNGELVIHEKGFYYIYSQTYFRFQEEIKENTKNDKQMVQYIYKYTSYPDPILLMKSARNSCWSKDAEYGLYSIYQGGIFELKENDRIFVSVTNEHLIDMDHEASFFGAFAVS
modifications: two N-glycosylation sites in the peptide AAAGNGTSNGTSEFGG, shown to be glycosylated
B10: Db-Glyco-scTRAIL-95L8 (other)
chain: TSEETISTVQEKQQNISPLVRERGPQRVAAHITGTRGRSNTLSSPNSKNEKALGRKINSWESSRSGHSFLSNLHLRNGELVIHEKGFYYIYSQTYFRFQEEIKENTKNDKQMVQYIYKYTSYPDPILLMKSARNSCWSKDAEYGLYSIYQGGIFELKENDRIFVSVTNEHLIDMDHEASFFGAFLVGGGGSGGGSTSEETISTVQEKQQNISPLVRERGPQRVAAHITGTRGRSNTLSSPNSKNEKALGRKINSWESSRSGHSFLSNLHLRNGELVIHEKGFYYIYSQTYFRFQEEIKENTKNDKQMVQYIYKYTSYPDPILLMKSARNSCWSKDAEYGLYSIYQGGIFELKENDRIFVSVTNEHLIDMDHEASFFGAFLVGGGGSGGGSTSEETISTVQEKQQNISPLVRERGPQRVAAHITGTRGRSNTLSSPNSKNEKALGRKINSWESSRSGHSFLSNLHLRNGELVIHEKGFYYIYSQTYFRFQEEIKENTKNDKQMVQYIYKYTSYPDPILLMKSARNSCWSKDAEYGLYSIYQGGIFELKENDRIFVSVTNEHLIDMDHEASFFGAFLVG
B11: Db-Glyco-scTRAIL3-FAVSGIA (other)
chain: B9 chain with A263I, A424I, A585I
modifications: glycosylated connecting peptide
B12: Db8-Glyco-scTRAIL3-FAVSGAA (other)
chain: LEASDYKDDDDKGAEVQLVESGGGLVQPGGSLRLSCAASGFSLTNYGVHWVRQAPGKGLEWLGVIWSGGNTDYNTPFTSRFTISRDNSKNTLYLQMNSLRAEDTAVYYCARALTYYDYEFAYWGQGTTVTVSSGGGGSGGGDIQLTQSPSFLSASVGDRVTITCRASQSIGTNIHWYQQKPGKAPKLLIKYASESISGVPSRFSGSGSGTEFTLTISSLQPEDFATYYCQQNNNWPTTFGAGTKLEIKRAAAGNGTSNGTSEFGGAAAHITGTRGRSNTLSSPNSKNEKALGRKINSWESSRSGHSFLSNLHLRNGELVIHEKGFYYIYSQTYFRFQEEIKENTKNDKQMVQYIYKYTSYPDPILLMKSARNSCWSKDAEYGLYSIYQGGIFELKENDRIFVSVTNEHLIDMDHEASFFGAFAVSGAAAHITGTRGRSNTLSSPNSKNEKALGRKINSWESSRSGHSFLSNLHLRNGELVIHEKGFYYIYSQTYFRFQEEIKENTKNDKQMVQYIYKYTSYPDPILLMKSARNSCWSKDAEYGLYSIYQGGIFELKENDRIFVSVTNEHLIDMDHEASFFGAFAVSGAAAHITGTRGRSNTLSSPNSKNEKALGRKINSWESSRSGHSFLSNLHLRNGELVIHEKGFYYIYSQTYFRFQEEIKENTKNDKQMVQYIYKYTSYPDPILLMKSARNSCWSKDAEYGLYSIYQGGIFELKENDRIFVSVTNEHLIDMDHEASFFGAFAVS
modifications: glycosylated connecting peptide
B13: Db10-Glyco-scTRAIL3-FAVSGAA (other)
chain: LEASDYKDDDDKGAEVQLVESGGGLVQPGGSLRLSCAASGFSLTNYGVHWVRQAPGKGLEWLGVIWSGGNTDYNTPFTSRFTISRDNSKNTLYLQMNSLRAEDTAVYYCARALTYYDYEFAYWGQGTTVTVSSGGGGSGGGGSDIQLTQSPSFLSASVGDRVTITCRASQSIGTNIHWYQQKPGKAPKLLIKYASESISGVPSRFSGSGSGTEFTLTISSLQPEDFATYYCQQNNNWPTTFGAGTKLEIKRAAAGNGTSNGTSEFGGAAAHITGTRGRSNTLSSPNSKNEKALGRKINSWESSRSGHSFLSNLHLRNGELVIHEKGFYYIYSQTYFRFQEEIKENTKNDKQMVQYIYKYTSYPDPILLMKSARNSCWSKDAEYGLYSIYQGGIFELKENDRIFVSVTNEHLIDMDHEASFFGAFAVSGAAAHITGTRGRSNTLSSPNSKNEKALGRKINSWESSRSGHSFLSNLHLRNGELVIHEKGFYYIYSQTYFRFQEEIKENTKNDKQMVQYIYKYTSYPDPILLMKSARNSCWSKDAEYGLYSIYQGGIFELKENDRIFVSVTNEHLIDMDHEASFFGAFAVSGAAAHITGTRGRSNTLSSPNSKNEKALGRKINSWESSRSGHSFLSNLHLRNGELVIHEKGFYYIYSQTYFRFQEEIKENTKNDKQMVQYIYKYTSYPDPILLMKSARNSCWSKDAEYGLYSIYQGGIFELKENDRIFVSVTNEHLIDMDHEASFFGAFAVS
modifications: glycosylated connecting peptide

These binders were tested against Colo 205 (assay: flow cytometry; Colo205 cells).
B1 gave an EC50 of 4.1 nM. With B2 the EC50 was 12.7 nM. With B3 the EC50 was 4.2 nM.

These binders were tested against TRAIL-R2-Fc (human, UniProt O14763 56-210) (assay: ELISA).
With B1 the EC50 was 5.25 nM. With B4 the EC50 was 8.82 nM. With B5 the EC50 was 17.5 nM. With B6 the EC50 was 6.7 nM. B7 showed an EC50 of 5.69 nM. Binder B8 has an EC50 of 4.82 nM.

The binders below were run against HT1080 (assay: flow cytometry; HT1080 cells).
B9 was tested, and the EC50 was 2.6 nM. Work on B10 yielded an EC50 of 0.6 nM. For B11, the EC50 was 4.3 nM. Binder B12 has an EC50 of 1.9 nM. Work on B13 yielded an EC50 of 3 nM.
